Assay results from PMC3158823.

Target: Neu/V664E TM domain peptide (rat)
Assay: SDS-PAGE mobility

For Neu/V664E TM domain peptide, which stoichiometry N is on record?
Its stoichiometry N is 2.
